The source of these data is patent US20140056903A1 (Regeneron, published 2014).

Residue numbers refer to the chain shown, from its start. Names may count otherwise.

The target of experiment [1] is T1, human GFRα3 expressed with a C-terminal myc-myc-hexahistidine tag (human, UniProt O60609 32-374, biotinylated (sites not given) in ELISA format 2 and in the Octet cross-competition; not in SPR).
T1 construct: also called hGFRα3-mmh; hGFRα3-mmH
The experiment in a line: blocking ELISA 2, biotin-hGFRα3-mmH to coated hARTEMIN-mmH + hRET-10His. The protocol: The equilibrated sample solutions were then transferred to the hARTEMIN-mmH-coated plate. […] Absorbance was recorded at 450 nm on a Victor X5 plate reader (Perkin Elmer) to determine the amount of free hGFRα3-hFc in the pre-equilibrated hGFRα3-hFc-antibody solutions that was able to bind to the plate coated with hARTEMIN-mmH. IC₅₀ values, defined as the concentration of antibody required to reduce the signal from a constant concentration of hGFRα3-hFc by 50%, were calculated from the data using Prism software from GraphPad. The absorbance measured at the constant amount of 120 pM hGFRα3-hFc in the absence of anti-GFRα3 antibody is defined as 0% blocking and the absorbance with no added hGFRα3-hFc is defined as 100% blocking. The observed absorbance in the wells containing the highest antibody concentration was used to calculate the maximum blocking percent shown in the table.
In the second ELISA format, the plates, samples and data were processed similarly as for the first format except both hARTEMIN-mmH and human RET with a C-terminal 10 histidine tag (hRET-10His; R&D Systems, #1168-CR/CF) were coated for the blocking ELISA experiment. The 96-well microtiter plates were coated with a mixture of 1.2 ug/ml hARTEMIN-mmH and 6.9 ug/ml hRET-10His proteins in PBS overnight at 4° C. and then blocked with a solution of 0.5% (w/v) BSA. A constant amount of biotinylated human GFRα3 with a C-terminal myc-myc-hexahistidine tag (biotin-hGFRα3-mmH; SEQ ID:370) at 1 nM was pre-mixed with varied amounts of anti-GFRα3 antibodies, ranging from 0 to ˜100 nM in serial dilutions, followed by a 1 hour incubation at RT to allow antibody-biotin-hGFRα3-mmH binding to reach equilibrium. The equilibrated samples were then transferred to the coated plate. After 1 hour of binding, the plate was washed, then the bound biotin-hGFRα3-mmH was detected using HRP conjugated streptavidin (Pierce, #N200), and colorimetric signals were developed using TMB HRP substrates.
(In an ELISA, binding on a coated surface is turned into a signal by an enzyme label.)

The target of experiment [2] is T2, human GFRα3 on HEK293/hGFRα3/hRET/SRE-luc cells (human, UniProt O60609 32-382).
T2 sequence: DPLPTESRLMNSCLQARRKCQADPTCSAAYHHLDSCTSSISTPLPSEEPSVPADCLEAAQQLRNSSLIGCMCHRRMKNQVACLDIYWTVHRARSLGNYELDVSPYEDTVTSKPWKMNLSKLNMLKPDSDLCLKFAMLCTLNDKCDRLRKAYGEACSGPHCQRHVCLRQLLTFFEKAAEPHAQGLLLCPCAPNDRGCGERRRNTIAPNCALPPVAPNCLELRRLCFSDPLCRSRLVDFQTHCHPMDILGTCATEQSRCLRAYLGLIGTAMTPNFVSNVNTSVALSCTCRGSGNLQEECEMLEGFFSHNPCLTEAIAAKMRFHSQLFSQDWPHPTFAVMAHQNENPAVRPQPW
The experiment can be described thus: cell-based or functional assay.

Experiment [3] has as its target T1, human GFRα3 expressed with a C-terminal …. The experiment in a line: Octet cross-competition; biotin-hGFRα3-mmH pre-saturated with first antibody H4H2352S. As for the experimental part:
(§1) A cross-competition assay was conducted to assess the ability of select antibodies to compete with one another for binding to human GFRα3 using an Octet RED384 biosensor (Fortebio Inc.). The entire experiment was performed at 25° C. with the flow rate of 1000 rpm in Octet HBST buffer (0.01 M HEPES pH7.4, 0.15M NaCl, 3 mM EDTA, 0.05% v/v Surfactant P20, 0.1 mg/mL BSA). To assess whether 2 antibodies were able to compete with one another for binding to their respective epitopes on biotinylated recombinant human GFRα3 expressed with a C-terminal myc-myc-hexahistidine tag (biotin-hGFRα3-mmH; SEQ ID:370), around ˜1.2 nm of biotin-hGFRα3-mmH was first captured onto streptavidin-coated Octet sensor tips (Fortebio Inc, #18-5019) by submerging the tips for 1 minute into a 10 μg/mL solution of biotin-hGFRα3-mmH. The antigen coated sensor tips were then placed into wells containing 25 μg/mL solution of a first anti-GFRα3 monoclonal antibody for 4 minutes to saturate the biotin-hGFRα3-mmH surface. The sensor tips were then subsequently dipped into wells containing 25 μ/mL solution of a second anti-GFRα3 monoclonal antibody. The sensor tips were washed in Octet HBST buffer in between every step of the experiment. The real-time binding response was monitored during the course of the experiment and the binding response at the end of every step was recorded as shown in FIG. 9. The response of mAb-2 binding to biotin-hGFRα3-mmH pre-complexed with the first antibody was compared and competitive/non-competitive behavior of different anti-GFRα3 monoclonal antibodies was determined.
(Biolayer interferometry detects binding as a change in optical thickness at a sensor tip.)

For experiment [4] the target is unchanged. The experiment in a line: Octet cross-competition; biotin-hGFRα3-mmH pre-saturated with first antibody H4H2236N3. The protocol: as §1

B1: H4H2341S (antibody, human IgG4, V domains shown)
VH: EVQLVESGAEVKKSGSSVKVSCKASGGTFSRYAISWVRQAPGQGLEWMGGIIPLFGTLNYAQKFQGRVTLTTDESTSTAYMELSSLRSEDTAVYYCAVFYYGSGSYRNWFDPWGQGTLVTVSS
VL: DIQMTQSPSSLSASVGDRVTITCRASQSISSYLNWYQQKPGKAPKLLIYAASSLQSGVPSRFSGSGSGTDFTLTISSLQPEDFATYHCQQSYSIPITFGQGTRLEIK
notes: human IgG4 Fc (H4H)
By IC50 is commonly meant the concentration that inhibits the measured activity by half. B1: in experiment [1], the “% max blocking” value stood at 98% and the IC50 was 1.62 nM. Besides, the “IC50 (SRE-luc, HEK293/hGFRα3/hRET cells, 100 pM hARTEMIN-mmH)” value in experiment [2] turned out to be 7.1 nM.

B2: H4H2344S (antibody, human IgG4, V domains shown)
VH: EVQLVESGGGVVQPGRSLRLSCAASGFSFSDYVMHWVRQAPGKGLEWVASIWFDGSNEFYADSVKGRFTISRDNSKNTLFLQMNSLRAEDTAVYYCAKKGVLVATSAFDIWGQGTMVTVSS
VL: DIQMTQSPSSLSASVGDRVTITCRASQSINNYLNWYHQKPGKAPKLLIYAASSLQSGVPSRFSGSGSGTDYTLTISSLQPEDFGNYYCQQSYRTSMYTFGQGTKVEIK
notes: human IgG4 Fc (H4H)
Regarding B2, in experiment [1], the “% max blocking” value was 100% and the IC50 came to 0.459 nM. In experiment [2], the “IC50 (SRE-luc, HEK293/hGFRα3/hRET cells, 100 pM hARTEMIN-mmH)” value worked out at 48 nM.

B3: H4H2293P (antibody, human IgG4, V domains shown)
VH: B2 VH with E1Q, F59L, D109H
VL: B2 VL with D1A, S28N, K45N, R93S, V105L
notes: human IgG4 Fc (H4H)
As to B3, in experiment [1], the “% max blocking” value came out at 95% and the IC50 turned out to be 7.38 nM. Moreover, the “IC50 (SRE-luc, HEK293/hGFRα3/hRET cells, 100 pM hARTEMIN-mmH)” value in experiment [2] turned out to be 20 nM.

B4: H4H2346S (antibody, human IgG4, V domains shown)
VH: B2 VH with E1Q
VL: B2 VL with D1E, Q3V
notes: human IgG4 Fc (H4H)
In the case of B4, in experiment [1], the “% max blocking” value was 99% and the concentration for half-maximal inhibition (IC50) amounted to 0.797 nM. In addition, in experiment [2], the “IC50 (SRE-luc, HEK293/hGFRα3/hRET cells, 100 pM hARTEMIN-mmH)” value was 26 nM.

B5: H4H2354S (antibody, human IgG4, V domains shown)
VH: B2 VH with E1Q
VL: B2 VL with M4L
notes: human IgG4 Fc (H4H); also called H4H2354S-1
B5: in experiment [1], the “% max blocking” value came to 97% and the IC50 worked out at 1.32 nM. Also, the “IC50 (SRE-luc, HEK293/hGFRα3/hRET cells, 100 pM hARTEMIN-mmH)” value in experiment [2] is 22 nM.

B6: H4H2345S (antibody, human IgG4, V domains shown)
VH: EVQLVESGGGLVRPGRSLRLSCAASGFTFDNYAMHWVRQVPGKGLEWVSGITWNSVSLGYADSVKGRFTISRDNAQNSLYLQMNSLRTVDTALYYCAKDRWGGSYYFDFWGQGTLVTVSS
VL: DIVMTQSPSSLSASVGDRVTITCRASQGISNYLAWYQQKPGKVPKLLIYSASTLQSGVPSRFSGSGSGTDFTLTISNLQPEDFATFFCQKYNSAPTFGGGTKVEIK
notes: human IgG4 Fc (H4H)
For the molecule B6, in experiment [1], the “% max blocking” value was 75% and the IC50 was determined as 14.6 nM. The “IC50 (SRE-luc, HEK293/hGFRα3/hRET cells, 100 pM hARTEMIN-mmH)” value in experiment [2] was 26 nM.

B7: H4H2236N3 (antibody, human IgG4, V domains shown)
VH: EVQLLESGGNLVQPGGSLRLSCAASGFTFSSYAMTWVRQAPGKGLEWVSTISGSGTSTYYADSVKGRFTISRDNSRDTVFLQMNSLRAEDTAVYYCSKPSALRFLHWLAMDVWGQGTLVTVSS
VL: DIQMTQSPSSLSAFVGDRVTITCRASQDIRNYLDWFQQKPGKAPKSLIYAASNLQSGVPSRFGGSGSGTDFTLTINSLQPEDFVTYYCQQYNSYPPTFGGGTKVEIK
notes: human IgG4 Fc (H4H)
For the molecule B7, the “binding response of second antibody (nm)” value in experiment [3] turned out to be 2.15 nm; in experiment [4], 0 nm. Further, in experiment [2], the “IC50 (SRE-luc, HEK293/hGFRα3/hRET cells, 100 pM hARTEMIN-mmH)” value came out at 1.5 nM.

B8: H4H2291S (antibody, human IgG4, V domains shown)
VH: EVQLVESGGGLVQPGESLRLSCAASGFTFSNYAMSWVRQAPGKGLEWVSVISGSGGSTYYADSVKGRFTMSRDNSKNTLYLQMNSLRAEDTAVYYCAKPPSRAARYFNYGMDVWGQGTTVTVSS
VL: AIRMTQSPSSVSASVGDRVTITCRASQGISSWLAWYQQKPGKAPKLLIYAASSLQSGVPSRFSGSGSGTDFTLTISSLQPEDFATYYCQQANSFPFTFGGGTKVEIK
notes: human IgG4 Fc (H4H)
Turning to B8, the “binding response of second antibody (nm)” value in experiment [3] was 2.63 nm; in experiment [4], 0.06 nm. Moreover, the “IC50 (SRE-luc, HEK293/hGFRα3/hRET cells, 100 pM hARTEMIN-mmH)” value in experiment [2] was 1.3 nM.

B9: H4H2296S (antibody, human IgG4, V domains shown)
VH: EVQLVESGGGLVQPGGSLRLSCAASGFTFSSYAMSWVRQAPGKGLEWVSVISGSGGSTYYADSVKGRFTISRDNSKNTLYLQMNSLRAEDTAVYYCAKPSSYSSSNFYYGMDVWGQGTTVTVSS
VL: B8 VL with A1D, R3V, Q55R, S76T, Q90H, A91T, G100P
notes: human IgG4 Fc (H4H)
As for B9, the figures for the “binding response of second antibody (nm)” value in experiment [3] and in experiment [4] were 2.35 nm and 0.02 nm, respectively. Moreover, the “IC50 (SRE-luc, HEK293/hGFRα3/hRET cells, 100 pM hARTEMIN-mmH)” value in experiment [2] worked out at 1.4 nM.

B10: H4H2295S (antibody, human IgG4, V domains shown)
VH: EVQLVESGGGLVQAGGSLRLSCVASGFTFSSYAMSWVRQAPGKGLEWVSAISGSGGSTYSADSVKGRFTISRDNSKNTLYLQMNSLRAEDTAVYYCTKPSSYSSSNFYYGMDVWGQGTTVTVSS
VL: B8 VL with A1D, R3Q, A50T, G68R, A91T, F94L, F96L, G100P
notes: human IgG4 Fc (H4H)
As to B10, the “binding response of second antibody (nm)” value in experiment [3] came to 2.31 nm; in experiment [4], 0.03 nm. Also, the “IC50 (SRE-luc, HEK293/hGFRα3/hRET cells, 100 pM hARTEMIN-mmH)” value in experiment [2] was found to be 1.5 nM.

B11: H4H2364S (antibody, human IgG4, V domains shown)
VH: B10 VH with V12E, A14P, V23A, A33V, A40V, A50V, S60Y, T97A, Y108H
VL: B8 VL with A1D, R3Q, S9Y, K42R, Q90K, A91T, G100P
notes: human IgG4 Fc (H4H)
Turning to B11, in experiment [1], the “% max blocking” value amounted to 100% and the IC50 was found to be 1.45 nM. The “IC50 (SRE-luc, HEK293/hGFRα3/hRET cells, 100 pM hARTEMIN-mmH)” value in experiment [2] was determined as 2.3 nM.

B12: H4H2294S (antibody, human IgG4, V domains shown)
VH: B10 VH with A14P, V23A, A50V, S60Y, S63A, N77H, T118S
VL: B8 VL with A1D, R3Q, M4L, A91T, T97P, G100P, E105D
notes: human IgG4 Fc (H4H)
On to B12, for which the “% max blocking” value in experiment [1] was found to be 95%. In addition, in experiment [1], the concentration for half-maximal inhibition (IC50) was 0.952 nM. In addition, the “binding response of second antibody (nm)” value worked out at 2.25 nm in experiment [3] and 0 nm in experiment [4].

B13: H4H2350P (antibody, human IgG4, V domains shown)
VH: QVQLQESGPGLVKPSETLSLTCTVSGGSISTYYWSWFRQPPGKGLEWIGYIYYSGSTNHNPSLKSRVTISVDTSKNQFSLKLRSVTAADTAVYYCARVGPVGWGSWGNFDYWGQGTLVTVSS
VL: DIQLTQSPSFLSASVGDRVTITCWASQGISSYLAWSQQKPGKAPKLLIYAASTLQSGVPSRFSGSGSGTEFTLTISSLQPEDFATYYCQQLNSYPWTFGQGTKVEIK
notes: human IgG4 Fc (H4H)
Take B13: in experiment [1], the “% max blocking” value is 91% and the IC50 amounted to 1.29 nM. The “binding response of second antibody (nm)” value in experiment [3] stood at 1.43 nm. Further, the “binding response of second antibody (nm)” value in experiment [4] was determined as 1.35 nm.
